Source: PMC10516418 (2023)

How the values were obtained:
Test in all cases: BLI
v3B_Δ15 = target: v3B_Δ15
v3B_Δ9 = target: v3B_Δ9
v3B_Δ18 = target: v3B_Δ18

B1: MPE8 antigen-binding fragment (Fab) (Fab, V domains shown)
VH: EVQLVESGGGLVKPGGSLRLSCAASGFTFSSYSMNWVRQAPGKGLEWVSSISASSSYSDYADSAKGRFTISRDNAKTSLFLQMNSLRAEDTAIYFCARARATGYSSITPYFDIWGQGTLVTVSS
VL: QSVVTQTPSVSGAPGQRVTISCTGSSSNIGAGYDVHWYQQLPGTAPKLLIYDNNNRPSGVPDRFSASKSGTSASLAITGLQAEDEADYYCQSYDRNLSGVFGTGTKVTVL
- Kd (v3B_Δ15): 62 nM
- Kd (v3B_Δ9): 87 nM
- Kd (v3B_Δ18): 690 nM
